Results taken from a protein production outcome set (Wang et al. 2014).

Test: label from the status in PepcDB records
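Also: failed if final PepcDB status was selected cloned or expressed and not failed if soluble or beyond.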

Sequence	protein production
QDKKEQFKQLFQIVEQSFGRPLSPYEIETLNQWIDVDHHDLSVIQAALDEALSQNKLSFKYIDRILLNWKKNNV	not failed
MKLPPGFSISVWANVPDARTMTLGDKGTVFVGSKSAGNVYAITENAGKRQIRIIASKLKMPNGVAFHDGALYVSSVNRILRFDNIENTLDQPLPPRIITADYPKETYHGWRFIAFGPDGWLYVPVGSSCNVCETDLEHYALISRIRPDGSNYEVFAKGVRNTEGFDWHPVTKALWFTDISREWMGDNLPPDELNHASNQGLDFGFPYCHGKEVSDPKLGAKRDCNKFIPPAVELDPHVAPMGMRFYTGTMFPAEYHNGIFIAEHGSWNRSTKIGYRLEWVQLEVNEVARKEIFAEGWLQENEAWGRPVDVLVMPDGALLVSDDMAGVVYRISYDQPLEHHHHHH	not failed
MDVQIHPMIIELAAFQAAKCGSVVGFGMVPSRNPSIKAASFFGIMVVTRSHVGESKDKGKEVEIAEPIESLILWLEELVAKQNKAMMRPMSDMMGAISRSTSHKLHDEQSTRDWSLPRSSTSTDDRSGHPVYRRKNRYDQVRYDAHQHYGNLTRLGKIDISRLDGIGIKEWLFKVEEFFGVDFTLQI	failed
MGYPPIRRFEYEHRGTETFTGRSPVPCHHAGIMSLYLRKQAYGVAPMKKIILSTIAALVASGSVFASYGTAAAQDYPYRPRYDRGYDRGGPPPPPYREHRRHNDGAAIAGGLAAGVIGGLIGGAIANGNGGPRYYEPPPPPRCWFEDRRVPNAYDGGWHMESMRVCN	failed
MDCRLKCTNQCTSLMMAFDKSHTIKGCSTEFSLSMTDTPILGTVKEPQRDYRTLDRQKLTPMFQHYTEVKEQYQGALLLYRVGDFFECFFQDAVIIARELELILTSKEGGKEIGRVAMTGVPHHALDRYARQLVEKGYAVAICDQVEDAAEAQAEKRMVERQVTKLLTPGTLTDDSMLPAKRNNFLAAIAMVEDKWGLAHADISTGEFFTCQSSNLDDLAVELLRLQPSEVLIPTSAPDIRNILRPGEPSEHIPKQLPTSFCYSLRSQAPFSLVEAKQRLLTTFRVKSLEGMGCEGLPLAIRAAGGLLEYIEDTQKAHVVPIQPLKTYGLTDFLVLDHQTRRNLEINQTVRDGSFHGSLLWALDRTSTTMGSRALRRWLLQPLLDLKGIQARQDTIQELYHHPALRQDLRQLLRQIYDLERLTGRIGANTASARDVYGLASSLVRLTDLAELAQEGHSPYLKALQTVPPELEELGKYVLAHIVENPPLHIREGNLIRSGVNPTLDEMRQSLEDDNQWLANLEVTEREKTGIANLKVGYNKAFGYYLSLPRSKSEQAPDNYIRKQTLVNEERYITPELKERETRILTAQADLNQLEYEIFTEVRATVAEKAQPIRDVAKAVAAIDVLAGLAEVAVYQGYCRPIMQMEPGLIDIEAGRHPVVEQSLGAGFFVANDTQLGHDHWHPDLVILTGPNASGKSCYLRQVGLIQLMAQTGSFIPAKTATLSICDRIFTRVGAVDDLATGQSTFMVEMNETANILNHATAKSLVLLDEIGRGTATFDGLAIAWSVAEYLAGEIQARTIFATHYHELNELASLLENVANFQVTVKELPEEIIFLHQVTPGGADKSYGIEAGRLAGLPSSVITRARQVMAQIEKHSKIAVGLRKGNRGKVMASQAAAEAAEDQAKQLDIFGF	failed
MTVAFASDQRLENGAEQLESLRRQMALLSEKVSGGPSRSGDLVPAGPVSLPPGTVGVLSGARSLLLSMVASVTAAGGNAAIVGQPDIGLLAAVEMGADLSRLAMIPDPGTDPVEVAAVLIDGMDLVVLGLGGRRVTRARARAVVARARQKGCTLLVTDGDWQGVSTRLAARVCGYEITPALRGVPTPGLGRISGVRLQINGRGR	failed
YGDINLNLLKDKGYTTLQDEAIKIFNSLQQLESMSDPIPIIQGILQTGHDLRPLRDELYCQLIKQTNKVPHPGSVGNLYSWQILTCLSCTFLPSRGILKYLKFHLKRIREQFPGTEMEKYALFTYESLKKTKCREFVPSRDEIEALIHRQEMTSTVYCHGGGSCKITINSHTTAGEVVEKLIRGLAMEDSRNMFALFEYNGHVDKAIESRTVVADVLAKFEKLAATSEVGDLPWKFYFKLYCFLDTDNVPKDSVEFAFMFEQAHEAVIHGHHPAPEENLQVLAALRLQYLQGDYTLHAAIPPLEEVYSLQRLKARISQSTKTFTPCERLEKRRTSFLEGTLRRSFRTGSVVRQKVEEEQMLDMWIKEEVSSARASIIDKWRKFQGMNQEQAMAKYMALIKEWPGYGSTLFDVECKEGGFPQELWLGVSADAVSVYKRGEGRPLEVFQYEHILSFGAPLANTYKIVVDERELLFETSEVVDVAKLMKAYISMIVKKRYSTTRSASSQGSSR	failed
KVKSGWLDKLSPQGKRMFQKRWVKFDGLSISYYNNEKEMYSKGIIPLSAISTVRVQGDNKFEVVTTQRTFVFRVEKEEERNDWISILLNALKSQSLTSQSQA	not failed
MSSVINYEKFEKIDISSSDDDNKKKLNPHLTKLDNKDKVVIGPNGLTILKNNNDEKIKHDKYNNTSKNVEEIKDKNDEYKTIYNETNNEILNNKNDNIHVQNMNNYVADDKKYKDMFINGAVVPYEYIWNQSIHYINAFICLPLNCKAKNLIVDIKEDKLIVKIKNYKCGIIYNNNNNNNKTNQHNTQSNSFHDNVEILVDKKFPFKINTDEDTQIWEIKNMQINWYTLFNLSNEINNQNVHYLFEDYNMLDKQETFLYISVKKINEIENAYIWWSTLFKNEHPIKIENLPSRSSTNKAKKTMNSFKTAWDEAHEIFKKNISMKQLPFRIDSS	failed
MNSTRGVTLIQLSSALAYSHALMNQVVNPGDHVIDATVGNGHDTVYLAKLVGTTGHVDGFDIQSAAIEATTTALDKAALTHQVTLWQTGHEHIADKIAADQPIKCAVFNLGYLPGGDKQIITKPTTTLTAIKAIQERLVTNGLIILLVYAGHPGGATEAQAVLDYVTNLDQHQFQVLQYQFINQVHVPPYLLAIQKR	failed
MGGKMRLLPIRKISRQSKRLALFLTFCAGYVDAYTFIVRGNTLVAGQTGNVVFLSVELIKNNVSDVRDKVLTLLAFMMGVFLLTIYKEKLRIVKKP	failed
GTTVPAPIMQTTDNSLTWLLQNLLDRTPGTRHALVLSRDGLRLCWTEHLTLDRADQLAAICSGIQALAQGASVEFGNGTGGVRHSMTEFHGGLLFIVEAGEGAHLAVVAVEDADPGVVGHQMTELVEQIGEHLRAEPRH	failed
MDTSNLDTPMRMAAFDRVRGLNEVHDHLTATELQPGFLFRGERIPLVNPQRGIFKPHQMRFLLSIKTVFPKPGGKVWYDDQRDIQRQIFYGDEAIDYAFMGKNPDAADNRWLKEAYENQIPVVYFLGIAPGRYQALLPTFISGWDGQALKARITFGPNPEKLAPPSDSAERRYALRTVKQRLHQATFREAVISAYDGRCAFSGLPEPLLLDAAHIIADKDERLGHPVVTNGIPLSKIHHAAFDAHLIGIDPDFRLHVSDRLLGQNDGPMLEALKQLNGRNIRLPGRAKDHPDRDRLAMRFERYKSVA	failed
MLRQSMNDYFEQPWYLTYADAERLSDLRDETLTLRDEEVTGHVPTEVEYEELQQVNDELAQRIGDMLKVHKEQGAAIDLALVLRDYLASHPRTHHFDLARMVVDQAVRLGYSESDYRAIQPDWTAINDFGAKVQANVIDRYLEHHHHHH	not failed
MQASSNGTTHTKRVRIRPFQKGIRRKRKDLMTEAENRCRLVLIVPDIADADEQARIVADALKGGDVASVIVPQYGLDDGAFQKHAEKLVPVIQDAGAAALIAGDSRVAGRAKADGLHITGNAQALSEAIDKHAPKLIVGGGNASDRHNALEIGEVRPDYIFFGKLDGDIKPEAHPKNLALGEWWASMIEIPCIVMAGTDPASALAVAETRAEFVALRLAVFGEPGRAPSIVAEINALLDEKAPRFED	failed
MVKDRQIQKTKVAIYNAFISLLQENDYSKITVQDVIGLANVGRSTFYSHYESKEVLLKELCEDLFHHLFKQGRDVTFEEYLVHILKHFEQNQDSIATLLLSDDPYFLLRFRSELEHDVYPRLREEYITKVDIPEDFLKQFLLSSFIETLKWWLHQRQKMTVEDLLKYYLTMVER	not failed
KGKIQEADNAAKLSAIKFVLKDPLTGDYLVDEKEIEEIVKKTGIETVVLKEYKEGVVLGPLYEFVTKDGRNAYVLSGYAPGFGGNVTVVACFIKTEDGFMLNSVRVIDYSQETPGLGAKIGEESIQRRFFPVPPEGLKNGLRVDKDAGLPKGSPEELKKQGIVKVSDVMTGATITPRAVVTALNLMYRYLEEVSK	not failed
MRCKRHTVDFSSSIGVCASCLRERLFTLAVSTAASENDDNDHRHSRISPPPLLFPRSVSPYVAPRKSDAGTGTGAGGRDSVASSNNRFFATPQVVVQSSSSEKVFESDRSFKKKKSGLSRFSSFFRTRSDDYDSRRDSCDASTVFSQPSSATTSRSWFSKVISVRSKKQSTTNTCYIEDLIASESDHHHHNQNRPRQRYCRGMSPAGDSTTNDESVEESPGRLRRTPVMGTPGRKKTATIGIGRSVSGMAFCLSPLVRAKPNCSSNWKAKFPPDFGYSGELKSPAKPHLSTAASFCGNRSKKLVDLGRVDHRR	failed
MAMNLRKNQAPLYIKVHEIDNTAIIVNDGGLPKGTVFSCGLVLEEDVPQGHKVALTDLNQGDEIVRYGEVIGFADETIKRGSWIREALVRMPAP	failed
MSRFMARIMVNGLNEPGTLAKVAQTVAGLDVNIRLLNTVRVAADFTEMMLEVEVWDLRQLNQLLAQMKELDCIATVRRLYELEHHHHHH	not failed
MAKYFGTDGIRGEVANSTITVEFTQKLGNAVGSLINQKNYPKFVIVGQDTRSSGGFLKFALVSGLNAAGIDVLDLGVVPTPVVAFMTVKHRAAAGFVITASHNKFTDNGIKLFSSNGFKLDDALEEEVEDMIDGDFIYQPQFKFGSYKILANAIDEYIESIYSRFAKFVNYKGKVVVDCAHGAASHNFEALLDKFGINYVSIASNPDGLNINVGCGATCVSNIKKAVKEQKADLGISLDGDADRIIIVDENGQEIDGDGILNILAQYSDICGGTNGIVGTQMTNMSYENHYRANKIPFIRSKVGDRYVLEDLVKYGYKIGGESSGHVINLNFGTTGDGLFTAIQLLAIFSQADKPVSEFKLQGELMQQTLINVPLTKKVAREDLQKVASDVNDVEKRLGNRGRVLLRPSGTEPVLRVMVEADDKSLATNEAEYLVEKVKQKLV	not failed
MRNVLITGATSGIGLSLVEKYLQAGDKVYACGRNFQAYLKSSSLIDAEKSDKLVKIVFDMNHHDAIIDVLTEVESLDIAILNAGTCEYIDDAMGFDAELFERVINTNVISIGYCLQALLPKMKQKGHLALMGSSAAFVPFQRAEAYGASKAAIHYLAQSLQLDIPKERLTISVIAPGFVKTPLTDKNDFPMPMLIEPDKAADHIINGINNNKQHIHFPFPFTRFLILMGALPSCIWQWMALRMKRK	failed
MKEGTGMVVRSSEITPERISNMRGGKGEVEMAHLLSKEAMHNKARLFARMKLPPGSSVGLHKHEGEFEIYYILLGEGVFHDNGKDVPIKAGDVCFTDSGESHSIENTGNTDLEFLAVIILL	not failed
MQSLGSLAKNIKPNQNIVEEEHNLKCERCGNTYDYYKFSNGKEFRHGCDCSMIAAGKEAEQQRKQKYLNRIFNQSNVNASLRDATVNSYQPQNDHQVHAKSTAIEYVKGFSVDKPKSLILQGSYGTGKSHLAYAVAKAIKQQGYSVAFMHIPMLMERIKATYNRNATETTDELVQLLSSIDLLVLDDVGVENTEHTLNKLFSIVDNRVGKNNIFTTNFSDKELNQNMNWQRINSRMKQNARTVRVLGDDFRGRDAW	failed
